# PMC9474600 (Immunity, 2022)
# B1: 310-39G10 Fab (Fab, V domains shown)
# VH: QVQLVQSGAEVKKPGSSVKVSCKASGGTFSRYTISWVRQAPGQGLEWMGRISPIAGLENYAQKFQGRVTITADISTSTAYMELSSLRSDDTAVYYCAGSSGYYQPPPYWGQGTLVTVSS
# VL: EIVLTQAPFSLSLSPGERATLSCRASQSVSSSSLAWYHQKPGQAPRLLIYGASSRATGIPDRFSGSGSGTDFTLTISRLEPEDFSLYYCQQYGSSPLTFGQGTRLEIK
# B2: 310-63E6 Fab (Fab, V domains shown)
# VH: QVQLVQSGAEVKKPGSSVKVSCTASGGTFSTYQFSWVRQAPGQGLEWMGRIVPIQGMDYAQKFRGRVTITADKWTSTVYMEVTSLRSEDTAVYYCATSRSMYFYYQLDVWGRGTTVTVSS
# VL: EIVLTQSPGTLSLSPGERATVSCRASQSVTSTFLAWYQQRPGQAPRLLIYGASSRATGIPDRFSGSGSEADFTLTINRLEPEDFAVYYCQQYATSPWTFGQGTKVEIK
# Target: Recombinant soluble HA trimer of A/New Caledonia/20/1999 (H1N1 NC99) (Influenza A virus A/New …, strain)
# Assay: cryo-EM structure
row,Binder,binding result
1,B1,binds
2,B2,binds
